Reference: the supplement of paper PMC5998384

Experiments:
HeLa Kyoto [1] = assay: solubility in G1/S (NP-40 vs SDS abundance) (log2 ratio); higher = more soluble; details: cell cycle stage: G1/S
HeLa Kyoto [2] = assay: solubility change mitosis vs G1/S (difference of NP-40 vs SDS log2 ratios) (log2 ratio difference); higher = more soluble in mitosis
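Throughout, for solubility change mitosis vs G1/S (difference of NP-40 vs SDS log2 ratios): synchronized HeLa Kyoto cells (double thymidine block for G1/S, nocodazole release for mitosis), protein amounts in NP-40 versus SDS lysates quantified by mass spectrometry, three biological replicates.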
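Throughout, for solubility in G1/S (NP-40 vs SDS abundance): HeLa Kyoto cells arrested at G1/S by double thymidine block, proteins quantified by TMT10plex mass spectrometry in mild NP-40 versus SDS extracts, three biological replicates.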

Substance | solubility in G1/S (log2) (HeLa Kyoto [1]) | solubility change mitosis (log2) (HeLa Kyoto [2])
MDSLDHMLTDPLELGPCGDGHGTRIMEDCLLGGTRVSLPEDLLEDPEIFFDVVSLSTWQEVLSDSQREHLQQFLPQFPEDSAEQQNELILALFSGENFRFGNPLHIAQKLFRDGHFNPEVVKYRQLCFKSQYKRYLNSQQQYFHRLLKQILASRSDLLEMARRSGPALPFRQKRPSPSRTPEEREWRTQQRYLKVLREVKEECGDTALSSDEEDLSSWLPSSPARSPSPAVPLRVVPTLSTTDMKTADKVELGDSDLKIMLKKHHEKRKHQPDHPDLLTGDLTLNDIMTRVNAGRKGSLAALYDLAVLKKKVKEKEEKKKKKIKTIKSEAEDLAEPLSSTEGVAPLSQAPSPLAIPAIKEEPLEDLKPCLGINEISSSFFSLLLEILLLESQASLPMLEERVLDWQSSPASSLNSWFSAAPNWAELVLPALQYLAGESRAVPSSFSPFVEFKEKTQQWKLLGQSQDNEKELAALFQLWLETKDQAFCKQENEDSSDATTPVPRVRTDYVVRPSTGEEKRVFQEQERYRYSQPHKAFTFRMHGFESVVGPVKGVFDKETSLNKAREHSLLRSDRPAYVTILSLVRDAAARLPNGEGTRAEICELLKDSQFLAPDVTSTQVNTVVSGALDRLHYEKDPCVKYDIGRKLWIYLHRDRSEEEFERIHQAQAAAAKARKALQQKPKPPSKVKSSSKESSIKVLSSGPSEQSQMSLSDSSMPPTPVTPVTPTTPALPAIPISPPPVSAVNKSGPSTVSEPAKSSSGVLLVSSPTMPHLGTMLSPASSQTAPSSQAAARVVSHSGSAGLSQVRVVAQPSLPAVPQQSGGPAQTLPQMPAGPQIRVPATATQTKVVPQTVMATVPVKAQTTAATVQRPGPGQTGLTVTSLPATASPVSKPATSSPGTSAPSASTAAVIQNVTGQNIIKQVAITGQLGVKPQTGNSIPLTATNFRIQGKDVLRLPPSSITTDAKGQTVLRITPDMMATLAKSQVTTVKLTQDLFGTGGNTTGKGISATLHVTSNPVHAADSPAKASSASAPSSTPTGTTVVKVTPDLKPTEASSSAFRLMPALGVSVADQKGKSTVASSEAKPAATIRIVQGLGVMPPKAGQTITVATHAKQGASVASGSGTVHTSAVSLPSMNAAVSKTVAVASGAASTPISISTGAPTVRQVPVSTTVVSTSQAGKLPTRITVPLSVISQPMKGKSVVTAPIIKGNLGANLSGLGRNIILTTMPAGTKLIAGNKPVSFLTAQQLQQLQQQGQATQVRIQTVPASHLQQGTASGSSKAVSTVVVTTAPSPKQAPEQQ [NFRKB] | -0.0172 | 0.184
MAGPLRAPLLLLAILAVALAVSPAAGSSPGKPPRLVGGPMDASVEEEGVRRALDFAVGEYNKASNDMYHSRALQVVRARKQIVAGVNYFLDVELGRTTCTKTQPNLDNCPFHDQPHLKRKAFCSFQIYAVPWQGTMTLSKSTCQDA [CST3] | -0.0401 | 0.378
MASVLSYESLVHAVAGAVGSVTAMTVFFPLDTARLRLQVDEKRKSKTTHMVLLEIIKEEGLLAPYRGWFPVISSLCCSNFVYFYTFNSLKALWVKGQHSTTGKDLVVGFVAGVVNVLLTTPLWVVNTRLKLQGAKFRNEDIVPTNYKGIIDAFHQIIRDEGISALWNGTFPSLLLVFNPAIQFMFYEGLKRQLLKKRMKLSSLDVFIIGAVAKAIATTVTYPLQTVQSILRFGRHRLNPENRTLGSLRNILYLLHQRVRRFGIMGLYKGLEAKLLQTVLTAALMFLVYEKLTAATFTVMGLKRAHQH [SLC25A17] | -0.148 | -0.0966
MSTSSLRRQMKNIVHNYSEAEIKVREATSNDPWGPSSSLMSEIADLTYNVVAFSEIMSMIWKRLNDHGKNWRHVYKAMTLMEYLIKTGSERVSQQCKENMYAVQTLKDFQYVDRDGKDQGVNVREKAKQLVALLRDEDRLREERAHALKTKEKLAQTATASSAAVGSGPPPEAEQAWPQSSGEEELQLQLALAMSKEEADQPPSCGPEDDAQLQLALSLSREEHDKEERIRRGDDLRLQMAIEESKRETGGKEESSLMDLADVFTAPAPAPTTDPWGGPAPMAAAVPTAAPTSDPWGGPPVPPAADPWGGPAPTPASGDPWRPAAPAGPSVDPWGGTPAPAAGEGPTPDPWGSSDGGVPVSGPSASDPWTPAPAFSDPWGGSPAKPSTNGTTAAGGFDTEPDEFSDFDRLRTALPTSGSSAGELELLAGEVPARSPGAFDMSGVRGSLAEAVGSPPPAATPTPTPPTRKTPESFLGPNAALVDLDSLVSRPGPTPPGAKASNPFLPGGGPATGPSVTNPFQPAPPATLTLNQLRLSPVPPVPGAPPTYISPLGGGPGLPPMMPPGPPAPNTNPFLL [EPN1] | 0.197 | 0.235
ELL2 | 0.0976 | 0.0626
MRFMTLLFLTALAGALVCAYDPEAASAPGSGNPCHEASAAQKENAGEDPGLARQAPKPRKQRSSLLEKGLDGAKKAVGGLGKLGKDAVEDLESVGKGAVHDVKDVLDSVL [DCD] | -1.49 | 1.24
MAPPAGGAAAAASDLGSAAVLLAVHAAVRPLGAGPDAEAQLRRLQLSADPERPGRFRLELLGAGPGAVNLEWPLESVSYTIRGPTQHELQPPPGGPGTLSLHFLNPQEAQRWAVLVRGATVEGQNGSKSNSPPALGPEACPVSLPSPPEASTLKGPPPEADLPRSPGNLTEREELAGSLARAIAGGDEKGAAQVAAVLAQHRVALSVQLQEACFPPGPIRLQVTLEDAASAASAASSAHVALQVHPHCTVAALQEQVFSELGFPPAVQRWVIGRCLCVPERSLASYGVRQDGDPAFLYLLSAPREAPATGPSPQHPQKMDGELGRLFPPSLGLPPGPQPAASSLPSPLQPSWSCPSCTFINAPDRPGCEMCSTQRPCTWDPLAAAST [SHARPIN] | 0.196 | -0.0725
MDTAEEDICRVCRSEGTPEKPLYHPCVCTGSIKFIHQECLVQWLKHSRKEYCELCKHRFAFTPIYSPDMPSRLPIQDIFAGLVTSIGTAIRYWFHYTLVAFAWLGVVPLTACRIYKCLFTGSVSSLLTLPLDMLSTENLLADCLQGCFVVTCTLCAFISLVWLREQIVHGGAPIWLEHAAPPFNAAGHHQNEAPAGGNGAENVAADQPANPPAENAVVGENPDAQDDQAEEEEEDNEEEDDAGVEDAADANNGAQDDMNWNALEWDRAAEELTWERMLGLDGSLVFLEHVFWVVSLNTLFILVFAFCPYHIGHFSLVGLGFEEHVQASHFEGLITTIVGYILLAITLIICHGLATLVKFHRSRRLLGVCYIVVKVSLLVVVEIGVFPLICGWWLDICSLEMFDATLKDRELSFQSAPGTTMFLHWLVGMVYVFYFASFILLLREVLRPGVLWFLRNLNDPDFNPVQEMIHLPIYRHLRRFILSVIVFGSIVLLMLWLPIRIIKSVLPNFLPYNVMLYSDAPVSELSLELLLLQVVLPALLEQGHTRQWLKGLVRAWTVTAGYLLDLHSYLLGDQEENENSANQQVNNNQHARNNNAIPVVGEGLHAAHQAILQQGGPVGFQPYRRPLNFPLRIFLLIVFMCITLLIASLICLTLPVFAGRWLMSFWTGTAKIHELYTAACGLYVCWLTIRAVTVMVAWMPQGRRVIFQKVKEWSLMIMKTLIVAVLLAGVVPLLLGLLFELVIVAPLRVPLDQTPLFYPWQDWALGVLHAKIIAAITLMGPQWWLKTVIEQVYANGIRNIDLHYIVRKLAAPVISVLLLSLCVPYVIASGVVPLLGVTAEMQNLVHRRIYPFLLMVVVLMAILSFQVRQFKRLYEHIKNDKYLVGQRLVNYERKSGKQGSSPPPPQSSQE [MARCH6] | -0.397 | 0.155
MAQGLIEVERKFLPGPGTEERLQELGGTLEYRVTFRDTYYDTPELSLMQADHWLRRREDSGWELKCPGAAGVLGPHTEYKELTAEPTIVAQLCKVLRADGLGAGDVAAVLGPLGLQEVASFVTKRSAWKLVLLGADEEEPQLRVDLDTADFGYAVGEVEALVHEEAEVPTALEKIHRLSSMLGVPAQETAPAKLIVYLQRFRPQDYQRLLEVNSSRERPQETEDPDHCLG [THTPA] | 0.0904 | 0.0566
MSVTEEDLCHHMKVVVRVRPENTKEKAAGFHKVVHVVDKHILVFDPKQEEVSFFHGKKTTNQNVIKKQNKDLKFVFDAVFDETSTQSEVFEHTTKPILRSFLNGYNCTVLAYGATGAGKTHTMLGSADEPGVMYLTMLHLYKCMDEIKEEKICSTAVSYLEVYNEQIRDLLVNSGPLAVREDTQKGVVVHGLTLHQPKSSEEILHLLDNGNKNRTQHPTDMNATSSRSHAVFQIYLRQQDKTASINQNVRIAKMSLIDLAGSERASTSGAKGTRFVEGTNINRSLLALGNVINALADSKRKNQHIPYRNSKLTRLLKDSLGGNCQTIMIAAVSPSSVFYDDTYNTLKYANRAKDIKSSLKSNVLNVNNHITQYVKICNEQKAEILLLKEKLKAYEEQKAFTNENDQAKLMISNPQEKEIERFQEILNCLFQNREEIRQEYLKLEMLLKENELKSFYQQQCHKQIEMMCSEDKVEKATGKRDHRLAMLKTRRSYLEKRREEELKQFDENTNWLHRVEKEMGLLSQNGHIPKELKKDLHCHHLHLQNKDLKAQIRHMMDLACLQEQQHRQTEAVLNALLPTLRKQYCTLKEAGLSNAAFESDFKEIEHLVERKKVVVWADQTAEQPKQNDLPGISVLMTFPQLGPVQPIPCCSSSGGTNLVKIPTEKRTRRKLMPSPLKGQHTLKSPPSQSVQLNDSLSKELQPIVYTPEDCRKAFQNPSTVTLMKPSSFTTSFQAISSNINSDNCLKMLCEVAIPHNRRKECGQEDLDSTFTICEDIKSSKCKLPEQESLPNDNKDILQRLDPSSFSTKHSMPVPSMVPSYMAMTTAAKRKRKLTSSTSNSSLTADVNSGFAKRVRQDNSSEKHLQENKPTMEHKRNICKINPSMVRKFGRNISKGNLR [KIF18A] | -0.624 | -0.237
